Holding throughout (experiment): co-immunoprecipitation, mass spectrometry
Test [1] concerns the target NCOR1 (endogenous, HEK293T) [Homo sapiens (Human).]. The following applies: HEK293T cells; n = 3 independent transfections per mutant; read off a plot.
Test [2] addresses endogenous SETD5 of Flp-In T-REx 293 and HEK293T cells [human (endogenous in Flp-In T-REx 293 and HEK293T)]. Particulars: n = 3 independent transfections per mutant, read off a plot.
In test [3] the target is GPS2 (endogenous, HEK293T). Particulars: HEK293T cells; n = 3 independent transfections per mutant; read off a plot.
Test [4] concerns the target HDAC3 (endogenous, HEK293T). Particulars: HEK293T cells; n = 3 independent transfections per mutant; read off a plot.
In test [5] the target is TBL1X (endogenous, HEK293T). Particulars: HEK293T cells; n = 3 independent transfections per mutant; read off a plot.

Consider 14 substances from PMC13385800 (2026).

Substance “EGFP-ANKRD11 full length (FL), wild type mutant R2512Q [not stated] / NCOR1 (endogenous, HEK293T) [Homo sapiens (Human).] chain 1 R2512Q” came in with a screen value in test [1] of 4.2 log2.

In test [2], “EGFP-ANKRD11 full length (FL), wild type mutant R2523W [not stated] / endogenous SETD5 of Flp-In T-REx 293 and HEK293T cells [human (endogenous in Flp-In T-REx 293 and HEK293T)] chain 1 R2523W” gave a screen value of 5.6 log2.

As to “EGFP-ANKRD11 full length (FL), wild type (from UniProt Q6UB99) S2475P”, the other: log2 fold change (WT/mutant) turned out to be 3.4 log2 in test [3], 7 log2 in test [4] and 7.6 log2 in test [5].

The substance “EGFP-ANKRD11 full length (FL), wild type mutant R2523W [not stated] / NCOR1 (endogenous, HEK293T) [Homo sapiens (Human).] chain 1 R2523W” came in with a screen value in test [1] of 7.4 log2.

For the substance “EGFP-ANKRD11 full length (FL), wild type mutant E2522K [not stated] / endogenous SETD5 of Flp-In T-REx 293 and HEK293T cells [human (endogenous in Flp-In T-REx 293 and HEK293T)] chain 1 E2522K”, the screen value in test [2] turned out to be 2.7 log2.

In turn, “EGFP-ANKRD11 full length (FL), wild type mutant R2512Q [not stated] / endogenous SETD5 of Flp-In T-REx 293 and HEK293T cells [human (endogenous in Flp-In T-REx 293 and HEK293T)] chain 1 R2512Q” showed a screen value in test [2] of 4 log2.

On to “EGFP-ANKRD11 full length (FL), wild type (from UniProt Q6UB99) R2523W”, for which the other: log2 fold change (WT/mutant) in test [3] was found to be 2.8 log2; in test [4] it was 5.9 log2.

In turn, “EGFP-ANKRD11 full length (FL), wild type mutant L2605R [not stated] / endogenous SETD5 of Flp-In T-REx 293 and HEK293T cells [human (endogenous in Flp-In T-REx 293 and HEK293T)] chain 1 L2605R” registered a screen value in test [2] of 4.6 log2.

Take “EGFP-ANKRD11 full length (FL), wild type mutant S2475P [not stated] / endogenous SETD5 of Flp-In T-REx 293 and HEK293T cells [human (endogenous in Flp-In T-REx 293 and HEK293T)] chain 1 S2475P”: in test [2], the screen value is 4.6 log2.

On to “EGFP-ANKRD11 full length (FL), wild type (from UniProt Q6UB99) L2605R”, for which the other: log2 fold change (WT/mutant) in test [3] is 3.4 log2; in test [4], 7 log2; in test [5] it was 7.2 log2.

Substance “EGFP-ANKRD11 full length (FL), wild type mutant S2475P [not stated] / NCOR1 (endogenous, HEK293T) [Homo sapiens (Human).] chain 1 S2475P” returned a screen value in test [1] of 7.9 log2.

“EGFP-ANKRD11 full length (FL), wild type mutant L2605R [not stated] / NCOR1 (endogenous, HEK293T) [Homo sapiens (Human).] chain 1 L2605R” came in with a screen value in test [1] of 7.9 log2.

Regarding “EGFP-ANKRD11 full length (FL), wild type (from UniProt Q6UB99) E2522K”, the other: log2 fold change (WT/mutant) turned out to be 2.8 log2 in test [3], 2.9 log2 in test [4] and 2.3 log2 in test [5].

In test [1], “EGFP-ANKRD11 full length (FL), wild type mutant E2522K [not stated] / NCOR1 (endogenous, HEK293T) [Homo sapiens (Human).] chain 1 E2522K” showed a screen value of 2.9 log2.
